How the values were obtained:
[1] = target: anti-FcRL5/CD3 bispecific antibody generated using the ET200-104 scFv; assay: ELISA, ET200-104 coated at 1 µg/ml on a Nunc Maxisorp plate; for some dilutions of the secondary Ab
[2] = target: anti-FcRL5/CD3 bispecific antibody generated using the ET200-117 scFv; assay: ELISA, ET200-117 coated at 1 µg/ml on a Nunc Maxisorp plate; for some dilutions of the secondary Ab
[3] = target: T1, FcRL1, overexpressed on 3T3 cells (UniProt Q96LA6 17-429, limits assumed); assay: phage clone on 3T3-FcRL1 cells
T1 construct: whole, on cells
T1 sequence (looked up): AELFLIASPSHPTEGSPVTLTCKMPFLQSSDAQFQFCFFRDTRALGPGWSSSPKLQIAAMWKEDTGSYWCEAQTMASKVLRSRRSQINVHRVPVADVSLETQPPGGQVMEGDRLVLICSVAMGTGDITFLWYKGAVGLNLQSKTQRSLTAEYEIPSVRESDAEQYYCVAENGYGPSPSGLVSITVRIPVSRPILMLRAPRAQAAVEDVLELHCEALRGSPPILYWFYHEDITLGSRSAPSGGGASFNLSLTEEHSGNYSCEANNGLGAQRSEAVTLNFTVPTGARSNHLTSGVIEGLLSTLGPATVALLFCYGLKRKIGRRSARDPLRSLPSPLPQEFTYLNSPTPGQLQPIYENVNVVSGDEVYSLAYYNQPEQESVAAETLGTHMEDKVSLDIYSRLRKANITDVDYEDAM

[4] = target: T2, FcRL4, overexpressed on 3T3 cells (UniProt Q96PJ5 20-515, limits assumed); assay: phage clone on 3T3-FcRL4 cells
T2 construct: whole, on cells
T2 sequence (looked up): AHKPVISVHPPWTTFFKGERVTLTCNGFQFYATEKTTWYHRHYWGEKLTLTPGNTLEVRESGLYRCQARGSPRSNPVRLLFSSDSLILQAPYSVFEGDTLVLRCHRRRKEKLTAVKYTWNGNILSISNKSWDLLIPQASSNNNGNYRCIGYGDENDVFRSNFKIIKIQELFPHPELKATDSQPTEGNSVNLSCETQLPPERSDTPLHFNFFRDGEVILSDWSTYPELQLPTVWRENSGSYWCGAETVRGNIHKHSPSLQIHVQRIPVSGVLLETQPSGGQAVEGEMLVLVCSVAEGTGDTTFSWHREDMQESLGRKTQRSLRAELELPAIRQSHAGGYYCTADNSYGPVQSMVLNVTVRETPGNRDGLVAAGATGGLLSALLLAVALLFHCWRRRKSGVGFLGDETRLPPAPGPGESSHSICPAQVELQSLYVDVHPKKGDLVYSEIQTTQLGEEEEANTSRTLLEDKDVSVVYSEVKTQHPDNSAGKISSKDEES

[5] = target: T3, FcRL6, overexpressed on 3T3 cells (UniProt Q6DN72 20-434, limits assumed); assay: phage clone on 3T3-FcRL6 cells
T3 construct: whole, on cells
T3 sequence (looked up): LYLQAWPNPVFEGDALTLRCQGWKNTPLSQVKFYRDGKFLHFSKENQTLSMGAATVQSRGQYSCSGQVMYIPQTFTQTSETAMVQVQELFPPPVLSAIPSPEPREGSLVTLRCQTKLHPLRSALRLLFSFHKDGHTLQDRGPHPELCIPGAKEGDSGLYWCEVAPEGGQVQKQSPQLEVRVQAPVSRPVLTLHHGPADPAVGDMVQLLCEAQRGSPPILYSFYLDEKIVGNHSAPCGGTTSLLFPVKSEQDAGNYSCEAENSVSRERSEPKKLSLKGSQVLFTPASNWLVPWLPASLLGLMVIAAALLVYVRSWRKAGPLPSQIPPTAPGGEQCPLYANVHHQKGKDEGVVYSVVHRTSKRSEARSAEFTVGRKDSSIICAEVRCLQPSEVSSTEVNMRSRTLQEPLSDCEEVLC

SLAMF9 protein = SLAMF9 protein (UniProt Q96A28 19-236, limits assumed); assay: phage clone on SLAMF9 protein
[6] = target: T4, FcRL2, overexpressed on 3T3 cells (UniProt Q96LA5 20-508, limits assumed); assay: phage clone on 3T3-FcRL2 cells
T4 construct: whole, on cells
T4 sequence (looked up): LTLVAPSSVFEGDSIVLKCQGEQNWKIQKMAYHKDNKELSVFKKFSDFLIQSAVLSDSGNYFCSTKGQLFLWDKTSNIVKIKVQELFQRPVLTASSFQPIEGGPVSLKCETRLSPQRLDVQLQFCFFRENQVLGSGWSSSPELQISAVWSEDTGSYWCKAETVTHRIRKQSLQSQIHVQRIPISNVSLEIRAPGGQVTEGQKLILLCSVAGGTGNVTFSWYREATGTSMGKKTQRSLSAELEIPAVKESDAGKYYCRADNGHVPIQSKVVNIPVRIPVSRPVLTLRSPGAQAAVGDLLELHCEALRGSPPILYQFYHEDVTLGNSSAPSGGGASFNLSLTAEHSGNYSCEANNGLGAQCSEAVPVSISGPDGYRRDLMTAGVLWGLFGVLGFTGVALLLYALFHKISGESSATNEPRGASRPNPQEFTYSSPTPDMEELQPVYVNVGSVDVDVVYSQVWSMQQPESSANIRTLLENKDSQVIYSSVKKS

[7] = target: T5, FcRL3, overexpressed on 3T3 cells (UniProt Q96P31 18-734, limits assumed); assay: phage clone on 3T3-FcRL3 cells
T5 construct: whole, on cells
T5 sequence (looked up): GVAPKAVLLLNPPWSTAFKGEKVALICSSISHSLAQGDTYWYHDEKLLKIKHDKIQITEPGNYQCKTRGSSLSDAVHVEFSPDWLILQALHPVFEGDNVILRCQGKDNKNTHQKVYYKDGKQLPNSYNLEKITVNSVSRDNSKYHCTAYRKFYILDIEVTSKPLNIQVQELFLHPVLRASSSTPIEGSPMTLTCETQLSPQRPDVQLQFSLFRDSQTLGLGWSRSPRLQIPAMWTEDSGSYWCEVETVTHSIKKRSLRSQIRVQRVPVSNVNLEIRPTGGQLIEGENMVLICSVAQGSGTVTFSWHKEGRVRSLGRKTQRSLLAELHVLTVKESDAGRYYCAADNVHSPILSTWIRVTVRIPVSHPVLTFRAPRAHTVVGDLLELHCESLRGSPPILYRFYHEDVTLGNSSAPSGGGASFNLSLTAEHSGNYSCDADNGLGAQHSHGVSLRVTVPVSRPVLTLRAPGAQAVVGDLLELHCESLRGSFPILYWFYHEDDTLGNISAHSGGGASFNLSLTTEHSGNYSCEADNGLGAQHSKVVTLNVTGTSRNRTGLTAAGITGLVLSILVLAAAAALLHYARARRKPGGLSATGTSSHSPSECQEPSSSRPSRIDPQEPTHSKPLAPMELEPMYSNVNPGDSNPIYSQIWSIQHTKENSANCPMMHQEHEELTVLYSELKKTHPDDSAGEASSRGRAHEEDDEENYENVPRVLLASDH

Sequence of SLAMF9 protein (Q96A28 19-236 limits assumed): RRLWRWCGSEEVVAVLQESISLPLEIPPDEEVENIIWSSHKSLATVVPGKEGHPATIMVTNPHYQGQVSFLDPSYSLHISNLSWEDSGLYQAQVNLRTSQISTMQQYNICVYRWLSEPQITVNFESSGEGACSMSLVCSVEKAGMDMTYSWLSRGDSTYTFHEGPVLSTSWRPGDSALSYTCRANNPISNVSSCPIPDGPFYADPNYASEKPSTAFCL
Sequence of anti-FcRL5/CD3 bispecific antibody generated using the ET200-117 scFv (scFv, as listed by the source limits assumed, form in doubt): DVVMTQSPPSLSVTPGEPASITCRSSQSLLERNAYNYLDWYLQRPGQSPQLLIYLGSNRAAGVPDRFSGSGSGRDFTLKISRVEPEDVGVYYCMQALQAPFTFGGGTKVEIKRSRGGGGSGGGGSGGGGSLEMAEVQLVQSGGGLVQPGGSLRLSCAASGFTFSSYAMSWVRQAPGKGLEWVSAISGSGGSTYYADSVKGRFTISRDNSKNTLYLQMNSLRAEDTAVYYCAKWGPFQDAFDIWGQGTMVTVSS

Goat Anti-Human Ig-HRP (Southern Biotech; #2010/05) (antibody)
> 1 OD: OD [1] | OD [2]

B1: ET200-037 (scFv)
scFv: SYVLTQPPSVSVAPGKTARITCGGNNIGSKSVHWYQQKPGQAPVLVIYYDSDRPSGIPERFSGSNSGNTATLTISRVEAGDEADYYCQVWDSSSDHPYVFGTGTKVTVLGSRGGGGSGGGGSGGGGSLEMAQMQLVQSGAEVKKPGASVKVSCKASGYTFTSYGISWVRQAPGQGLEWMGWISAYNGNTNYAQKLQGRVTMTTDTSTSTAYMELRSLRSDDTAVYYCARSMFGAHDSWGQGTLVTVSSTSGQAGQHHHHHHGAYPYDVPDYAS
notes: screened as phage clone; entry is VL-linker-VH-His tag-HA tag
no binding: binding result [3] | binding result [4] | binding result [5] | binding result (SLAMF9 protein) | binding result [6] | binding result [7]

B2: ET200-024 (scFv)
scFv: NFMLTQPHSVSESPGKTVTISCTGSSGSIASNYVQWYQQRPGSAPTTVIYEDNQRPSGVPDRFSGSIDSSSNSASLTISGLKTEDEADYYCQSYDSSNLWVFGGGTKLTVLGSRGGGGSGGGGSGGGGSLEMAQMQLVQSGAEVKKPGSSVKVSCKASGGTFSSYAISWVRQAPGQGLEWMGGIIPIFGTANYAQKFQGRVTITADESTSTAYMELSSLRSEDTAVYYCARYNYYYYDSWGQGTLVTVSSTSGQAGQHHHHHHGAYPYDVPDYAS
notes: as for B1
no binding: binding result [3] | binding result [4] | binding result [5] | binding result (SLAMF9 protein) | binding result [6] | binding result [7]

From patent US20210388081A1 (Memorial Sloan Kettering, published 2021)
